# Test results from patent US20230140200A1, “COMPOSITIONS AND METHODS FOR DETECTING CELLS UNDERGOING FERROPTOSIS USING AN ANTIBODY” (THE TRUSTEES OF COLUMBIA UNIVERSITY IN THE CITY OF NEW YORK, priority 2020, published 2023).
# “Also recorded” adds a separate entry of the source.
# B1: 3F3-FMA: Murine monoclonal IgG1 raised against ferroptotic membrane fractions; antigen is transferrin receptor protein 1 (TfR1) (antibody, V domains shown)
# VH: EVLLQQSGTELVRPGALVKLSCKASGFNIQDLYIHWVKQRPEQGLEWIGWIDPETDNTIYDPKFQGKASITADTSSNTAYLQLSSLTSEDTAMYYCSTGLLQWYFDVWGAGTAVTVSS
# VL: DIVMTQSPSSLAMSIGQKVTMRCKSSQSLLNSYNQKNCLAWYQQKPGQSPKLLLYFVSTRESGVPDRFIGSGSGTDFTLTISSVQAEDLADYFCQQHYSTPLTFGAGTKLELK
# Assays:
# HT-1080 cells = assay: Flow cytometry staining without permeabilization; format: cell-based, human; settings: vs DMSO
# [1] = system: HCC mouse xenograft tumor tissue (Huh-7 cells); assay: Staining of hepatocellular carcinoma (HCC) mouse xenograft tumor tissue sections; settings: 50 mg/kg IKE once daily IP for 2 days
# Procedure: Tumor tissues were fixed in 4% paraformaldehyde (PFA) for 24 h at 4° C. followed by washing with PBS three times. The tissues were perfused in 30% sucrose for 24 h at 4° C. for cryo-protection. The samples were embedded in OCT cryostat sectioning medium, and then moved directly into a cryostat. After equilibration of temperature, frozen tumor tissues were cut into 5 μm thick sections. Tissue sections were mounted on to poly-L-lysine coated slides by placing the cold sections onto warm slides. Slides were stored at −80° C. until staining. For staining, slides were warmed to room temperature followed by washing with PBS twice. A hydrophobic barrier pen was used to draw a circle on each slide. The slides were permeabilized with PBS with 0.4% Triton X-100 (PBT) twice before non-specific-binding blocking by incubating the sections with 10% goat serum (ThermoFisher 50197Z) for 30 min at room temperature. […] All images were captured on a Zeiss LSM 800 confocal microscope at Plan-Apochromat 63×/1.40 Oil DIC objective with constant laser intensity for all analyzed samples. The intensity above threshold of the fluorescent signal of the bound antibodies was analyzed using NIH ImageJ software (ImageJ, RRID:SCR_003070). Data were expressed as fold change comparing with the vehicle. […]
# Huh-7 cells = assay: Immunofluorescence in Huh-7 cells; format: cell-based; settings: 1 μM RSL3, 4 h
# SK-LMS-1 cells = assay: Immunofluorescence in SK-LMS-1 cells; format: cell-based, human; settings: 1 μM RSL3, 4 h
# human brain tissues = assay: Staining of post-mortem Huntington's disease and control brain tissues; settings: HD and control groups
# Procedure: (§1) FIGS. 12A-12B show 3F3 FMA staining in human Huntington's disease brains and mouse tissues. In FIG. 12A, human HD and control brain tissues were fixed in 4% PFA for 24 h, perfused in 30% sucrose for 24 h, and stained with DAPI (nuclei, blue) and 3F3 FMA (red). The expression level of TfR1 is low. There was no difference between HD and control groups. In FIG. 12B, mouse liver tissues and mouse GBM tissues were fixed and stained with DAPI (nuclei, blue) and 3F3 FMA (red). 3F3 FMA was able to recognize mouse TfR1.
# mouse liver tissues = assay: Staining of normal mouse liver frozen tissue
# Procedure: as §1
# mouse TfR1 = molecular target: T1, mouse TfR1 (Mus musculus, UniProt Q62351); assay: Staining of mouse glioblastoma paraffin-embedded tissue; settings: paraffin-embedded GBM tissue
# T1 construct: We evaluated 3F3-FMA staining in mouse glioblastoma (GBM) paraffin-embedded tissue samples; from tissue; host or cells: mouse glioblastoma (murine glioma model, c57/B6 mice), paraffin-embedded brain sections
# Procedure: All procedures were performed according to the Columbia University Medical Center Institutional Animal Care and Use Committee. Murine glioma cell lines were created from tumor bearing mice. These tumors were generated by injection of a PDGF-IRES-Cre retrovirus into the subcortical white matter of mice with floxed PTEN and/or p53 (Sonabend et al., 2013). After mice reached end stage, the tumors were dissociated and primary cell cultures were created. These cells harbored the specific mutations of the original tumors, and could be re-injected to form gliomas in c57/B6 mice with high fidelity. Briefly, mice between the ages of 6-8 weeks received 50,000 murine glioma cells through stereotactic injection after being anesthetized with a ketamine/xylazine cocktail (87.5 mg/12.5 mg w/w). After cessation of toe-pinch reflex, the scalp was shaved and cleaned with serial use of betadine and 70% ethanol swabs. An incision was made and the skull was exposed. A burr hole was created, 2 mm anterior, 2 mm lateral and 2 mm deep to the right of the bregma. The cells were injected into the subcortical white matter over a period of 3 minutes (0.333 μL/min). Once the injection ceased, the needle was left in place for 1 minute before being slowly withdrawn. After tumor developed, brains were harvested and fixed in 4% paraformaldehyde and embedded in paraffin. 5 micron sections were made for staining.
# T1 sequence (Q62351 whole entry): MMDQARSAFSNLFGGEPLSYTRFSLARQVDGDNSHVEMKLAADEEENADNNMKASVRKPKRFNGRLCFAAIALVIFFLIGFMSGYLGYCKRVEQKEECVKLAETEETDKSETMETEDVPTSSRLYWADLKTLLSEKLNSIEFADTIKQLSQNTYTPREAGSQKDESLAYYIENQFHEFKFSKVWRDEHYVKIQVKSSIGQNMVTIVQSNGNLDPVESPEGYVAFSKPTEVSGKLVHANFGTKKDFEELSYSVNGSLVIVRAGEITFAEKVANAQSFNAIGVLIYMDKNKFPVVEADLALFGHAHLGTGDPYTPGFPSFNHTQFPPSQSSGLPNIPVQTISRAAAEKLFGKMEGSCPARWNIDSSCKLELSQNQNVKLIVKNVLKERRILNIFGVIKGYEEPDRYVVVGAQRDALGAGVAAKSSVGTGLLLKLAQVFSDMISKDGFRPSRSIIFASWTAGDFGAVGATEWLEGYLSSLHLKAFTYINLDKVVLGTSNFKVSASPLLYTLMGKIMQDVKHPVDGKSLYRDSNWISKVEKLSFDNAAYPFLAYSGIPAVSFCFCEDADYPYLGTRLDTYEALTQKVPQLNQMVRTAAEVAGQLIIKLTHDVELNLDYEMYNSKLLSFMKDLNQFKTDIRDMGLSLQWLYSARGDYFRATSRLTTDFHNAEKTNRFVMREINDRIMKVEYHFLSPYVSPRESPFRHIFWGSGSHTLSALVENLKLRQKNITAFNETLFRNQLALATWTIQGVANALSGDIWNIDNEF
molecule,measurement,setting,value
B1,antibody staining intensity by flow cytometry in RSL3-treated cells,"HT-1080 cells; 1 μM RSL3, 4 h",increased intensities
same,antibody staining intensity by flow cytometry in STS-induced apoptosis,"HT-1080 cells; 1 μM STS, 6 h",decreased intensity; also recorded: decreased intensities
same,antibody staining intensity in IKE-treated vs vehicle tumor tissue,[1],increased intensities; also recorded: difference in intensities
same,3F3-FMA staining upon ferroptosis induction,Huh-7 cells,concentrated at the cell boundaries and became brighter
same,3F3-FMA staining upon ferroptosis induction,SK-LMS-1 cells,concentrated at the cell boundaries and became brighter
same,staining signal in brain tissue,human brain tissues,lack of signal
same,staining signal in normal liver tissue,mouse liver tissues,robust signal
same,recognition of TfR1 in tumor samples,mouse TfR1,able to recognize mouse TfR1 protein
